Source: paper PMC7586906, “Development and characterization of specific anti‐Usutu virus chicken‐derived single chain variable fragment antibodies” (Protein Science : A Publication of the Protein Society, 2020)
“And” between values parts separate entries of the source, which are not always exact repeats. Equal values may be shown once.

T1: USUV E protein DIII group I (Usutu virus, sequence group I, strain)
T1 construct: 103 amino acids, 10.9 kDa; also called USUV I; USUV DIII group I
T1 chain: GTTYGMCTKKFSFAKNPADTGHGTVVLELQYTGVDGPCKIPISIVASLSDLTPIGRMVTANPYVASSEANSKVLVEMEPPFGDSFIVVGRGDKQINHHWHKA

T2: WNV E protein DIII (West Nile virus NY99 (also called 2741), strain)
T2 construct: domain III of the envelope (E) protein of West Nile virus; 103 amino acids, 10.9 kDa; also called WNV DIII; WNV E protein DIII NY99 strain
T2 chain: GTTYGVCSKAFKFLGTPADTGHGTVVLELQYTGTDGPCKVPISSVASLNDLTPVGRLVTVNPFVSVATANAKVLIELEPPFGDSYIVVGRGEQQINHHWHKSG

T3: USUV E protein DIII group B (Usutu virus, sequence group B, strain)
T3 construct: 103 amino acids, 11.0 kDa; also called USUV B; USUV DIII group B
T3 chain: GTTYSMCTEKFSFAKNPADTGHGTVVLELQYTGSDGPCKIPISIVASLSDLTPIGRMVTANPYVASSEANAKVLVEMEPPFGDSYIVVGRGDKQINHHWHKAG


Experiments:
[1] = biological target: T4, soluble E (sE) protein of WNV strain NY-1999 (West Nile virus NY-1999 (NY99), UniProt Q9Q6P4, strain); test: far-Western, overlay or dot blot; western blot at one amount: 0.5 μg of E protein DIII and 0.5 or 0.25 μg of sE per well on a 15% SDS gel, probed with 5 μg of scFv in 10 ml PBST, then mouse anti-HA and HRP goat anti-mouse; details: both partners purified
T4 construct: whole ectodomain of the envelope (E) protein of West Nile virus strain NY-1999 (NY99); also called sE of WNV; WNV NY99 sE; source: Drosophila S2 cells, provided by Prof; Karin Stiasny and Lena Roßbacher

[2] = biological target: T5, soluble E (sE) protein of USUV strain Bologna-2009 (Usutu virus strain Bologna-2009, UniProt R4HE74, strain); test: as above; details: both partners purified
T5 construct: also called sE of USUV; USUV sE; source: Drosophila S2 cells, provided by Prof; Karin Stiasny and Lena Roßbacher

[3] = biological target: T1, USUV E protein DIII group I; test: SPR; Biacore T200; scFv captured by its His-tag on a CM5 chip (His Capture Kit), E protein DIII as analyte in two-fold dilutions (31-2,000 nM; WNV also 100-32,000 nM), multi-cycle kinetics, 25°C, PBS with 0.05% Tween 20, 30 μl/min; 1:1 kinetic fit (legend of Figure 4), steady-state affinity model named for KD in the methods; details: both partners purified
WNV E protein DIII = biological target: T2, WNV E protein DIII; test: as above; details: both partners purified
[4] = biological target: T3, USUV E protein DIII group B; test: as above; details: both partners purified
[5] = biological target: T6, USUV strain Vienna-2001 whole virus (E protein on virions) (Usutu virus Vienna-2001, UniProt Q5WPU5, strain); test: ELISA; virus ELISA: PEG-precipitated USUV Vienna-2001 (8.1 × 10^6 pfu in 50 μl) coated on the plate, blocked with 5% BSA, scFv 2.5-20 μg/ml for 1 hr at 37°C, detected by HRP anti-His, 450 nm; details: one partner purified
T6 construct: envelope (E) protein of Usutu virus strain Vienna-2001, cut from the polyprotein, as it stands on whole virions coated on the plate; The assay used whole virus; The other proteins of the virion are not written; also called USUV Vienna-2001; source: virus expanded in C6/36 cells, precipitated with 8% PEG8000, resuspended in NTE buffer

Row | Binder | binding result [1] | binding result [2] | Kd [3] | koff [3] | kon [3] | Kd (WNV E protein DIII) [nM] | koff (WNV E protein DIII) | kon (WNV E protein DIII) | Kd [4] | koff [4] | kon [4] | binding result [5]
1 | scFv A9 (scFv, V domains shown, chicken light chain variable region (V lambda) of A9, N-terminal part of the scFv; long linker between V lambda and VH; chicken heavy chain variable region (VH) of A9; From a chicken immune phage display library in pComb3XSS; also called cross-reactive scFv; source: E. coli TOP10, purified (IMAC, HisTrap FF); not shown: His6, C-terminal, kept; HA, C-terminal, kept) VH: AVTLDESGGGLQTPGGTLSLVCKASGFTFSSVNMFWVRQAPGKGLEYVASISNTGSSTNYGAAVKGRATISRDNGQSTVRLQLNNLRAEDTATYFCAKDAYGYSFTVTPGYTIDAWGHGTEVIVSS VL: ALTQPSSVSANLGGTVKITCSGGGGSYGWYQQKSPGSAPVTVIYENTKRPSNIPSRFSGSKSGSTSTLTITGVQAEDEAVYYCGSTDNNNIFGAGTTLTVL | binds | binds | 290 nM and 300 nM | 0.05 s⁻¹ and 0.048 s⁻¹ | 170000 M⁻¹ s⁻¹ and 168000 M⁻¹ s⁻¹ | 100 | 0.105 s⁻¹ and 0.094 s⁻¹ | 1.04e+06 M⁻¹ s⁻¹ and 970000 M⁻¹ s⁻¹ | 410 nM and 360 nM | 0.062 s⁻¹ and 0.059 s⁻¹ | 152000 M⁻¹ s⁻¹ and 166000 M⁻¹ s⁻¹ | binds
2 | scFv G1 (scFv, V domains shown, chicken light chain variable region (V lambda) of G1, N-terminal part of the scFv; long linker between V lambda and VH; From a chicken immune phage display library in pComb3XSS; Could not be held stably on the SPR chip; source: E. coli TOP10, purified (IMAC, HisTrap FF); not shown: His6, C-terminal, kept; HA, C-terminal, kept) VH: AVTLDESGGGLQTPGGGLSLVCKASGFDFSRYGMNWVRQAPGKGLEWVAGISPDGSGTWYATAVKGRATISRDNGQSTVRLQLNNLRAEDTATYYCTRGNGDSFDAWGHGTEVIVSS VL: ALTQPSSVSANLGGTVKITCSGGSYSYGWYQQKSPGSAPVTVIYYNDKRPSDIPSRFSGSKSGSTGTLTITGVQADDEAVYFCGGFDSSAGYVGIFGAGTTLTVL | – | binds | – | – | – | – | – | – | – | – | – | binds
3 | scFv A8 (scFv, V domains shown, chicken light chain variable region (V lambda) of A8, N-terminal part of the scFv; long linker between V lambda and VH; chicken heavy chain variable region (VH) of A8; From a chicken immune phage display library in pComb3XSS; source: E. coli TOP10, purified (IMAC, HisTrap FF); not shown: His6, C-terminal, kept; HA, C-terminal, kept) VH: AVTLDESGGGLQTPGGGLSLVCKASGFTMSSYHMGWVRQAPGKGLEYVVGIDNTGRYTDYGAAVKGRATISRDNGQSTLRLQLNNLRAEDTGTYFCAKSAYLGRGCWDAELCAGEIDAWGHGTEVIVSS VL: ALTQPSSVSANLGGTVKITCSGGYSGYGWYQQKSPGSAPVTLIYDNTKRPSDIPSRFSGSKSGSTGTLTITGVQAEDEAVYYCGSGDSRNYVGIFGAGTTLTVR | – | – | 60 nM | 0.001 s⁻¹ | 19800 M⁻¹ s⁻¹ | – | – | – | 100 nM | 0.002 s⁻¹ | 20000 M⁻¹ s⁻¹ | binds
4 | scFv A12 (scFv, V domains shown, chicken light chain variable region (V lambda) of A12, N-terminal part of the scFv; long linker between V lambda and VH; chicken heavy chain variable region (VH) of A12; From a chicken immune phage display library in pComb3XSS; source: E. coli TOP10, purified (IMAC, HisTrap FF); not shown: His6, C-terminal, kept; HA, C-terminal, kept) VH: AVTLDESGGGLQTPGGALSLVCKASGFTFSSYHMGWVRQAPGKGLEYVAGIDNTGRYTDYGAAVKGRATISRDNGQSTLRLQLNNLRAEDTGTYFCAKSAYLGRGCWGAELCAGEIDTWGHGTEVIVSS VL: ALTQPSSVSANPGETVQITCSGSSNKYGNNYGWYQQKSPGSAPVTVIYDDDKRPSDIPPRFSGSKSGSTNTLTITGVQADDEAVYFCGAYDNSDSGIFGAGTALTVL | – | – | 140 nM and 130 nM | 0.007 s⁻¹ and 0.006 s⁻¹ | 48600 M⁻¹ s⁻¹ and 46600 M⁻¹ s⁻¹ | – | – | – | 300 nM and 290 nM | 0.012 s⁻¹ and 0.01 s⁻¹ | 39600 M⁻¹ s⁻¹ and 34200 M⁻¹ s⁻¹ | binds
5 | scFv D2.2 (scFv, V domains shown, chicken light chain variable region (V lambda) of D2.2, N-terminal part of the scFv; long linker between V lambda and VH; chicken heavy chain variable region (VH) of D2.2; From a chicken immune phage display library in pComb3XSS; source: E. coli TOP10, purified (IMAC, HisTrap FF); not shown: His6, C-terminal, kept; HA, C-terminal, kept) VH: AVTLDESGGGLQTPGGALSLVCKGSGFTFSSHAMMWVRQAPGKGLEWVAGISRDGSTYYGAAVKGRATISRDDGQSTVRLQLNNLRAEDTGTYFCAKDVYGYCDTISGCEAGTIDAWGHGTEVIVSS VL: ALTQPSSVSANLGETVKITCSGSSGSYGWYQQKSPGSAPVTVIYYNDKRPSDIPSRFSGSKSGSTGTLTITGVQADDEAVYFCGSEDSSSTYAGIFGAGTTLTVL | – | – | – | – | – | – | – | – | 230 nM and 250 nM | 0.074 s⁻¹ and 0.069 s⁻¹ | 326000 M⁻¹ s⁻¹ and 273000 M⁻¹ s⁻¹ | binds
